From US7307063B2, “Melanocortin metallopeptides for treatment of sexual dysfunction” (Palatin Technologies, Inc., priority 2001, dated 2007)
Non-standard residues stand in square brackets, D forms with d. No end group written: not given here. *: point of attachment. Phenylacetyl(4-Ph) = O=C(Cc1ccc(-c2ccccc2)cc1)*; dIgl = N[C@@H](C(=O)O)C1Cc2ccccc2C1; Hydrocinnamoyl = O=C(CCc1ccccc1)*; 4‑Amc = not defined here; Nle = CCCC[C@H](N)C(=O)O; Ahp = NCCCCCCC(=O)O

Columns and labels:
[1] = target: T1, hMC5-R (Homo sapiens, UniProt P33032); experiment: Competitive binding assay: inhibition of 125I-NDP-α-MSH binding to HEK-293 membranes with cloned human receptor subtype 5; settings: Table 6; 1 μM; mean of triplicate
T1 construct: expressed in transfected cells; host or cells: HEK-293
Experimental: (§1) Rhenium-complexed metallopeptides of the formulas given in Table 1 were prepared, with the metallopeptides complexed with rhenium using the rhenium transfer agent ReOCl3(PPh3)2 in the presence of 1,8-Diazabicyclo[5,4,0] undec-7-ene as a base, as disclosed in International Application PCT/US00/16396, filed Jun. 14, 2000, Melanocortin Metallopeptide Constructs, Combinatorial Libraries and Applications, incorporated by reference herein. Affinities of compounds were measured using membranes from HEK-293 cells containing cloned human melanocortin receptor subtypes 3, 4 and 5. MC1-R membranes were isolated from B16—F10 mouse melanoma cells. The assay tube also contained a chosen concentration of the test peptide of this invention, complexed to a rhenium metal ion as indicated, for determining its efficacy in inhibiting the binding of ^125I-NDP-α-MSH to its receptor. Non-specific binding was measured by complete inhibition of binding of ^125I-NDP-α-MSH in the assay with the presence of 1 μM α-MSH. 100% specific binding was defined as the difference in radioactivity (cpm) bound to cell membranes in the absence and presence of 1 μM α-MSH. The cpm obtained in presence of test compounds were normalized with respect to 100% specific binding to determine the percent inhibition of ^125I-NDP-α-MSH binding.
(§2) Peptide sequences set forth in Table 6 were prepared using conventional synthetic means. The resulting sequences were rhenium-complexed to form metallopeptides, with the metallopeptides complexed with rhenium using the rhenium transfer agent ReOCl3(PPh3)2 in the presence of 1,8-Diazabicyclo[5,4,0] undec-7-ene as a base. Percent inhibition was determined as in Example 1 using the Re-complexed metallopeptides, using the same methods as described therein. All measures are means of triplicate determinations.

[2] = target: T2, MC1-R (Mus musculus, UniProt Q01727); experiment: Competitive binding assay: inhibition of 125I-NDP-α-MSH binding to membranes from B16-F10 mouse melanoma cells; settings: Table 6; 1 μM; mean of triplicate
T2 construct: MC1-R membranes were isolated from B16—F10 mouse melanoma cells; endogenous in cells; host or cells: B16-F10 mouse melanoma cells
Summary of the method: (§3)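 Membranes: B16-F10 mouse melanoma (MC1-R) or HEK-293 expressing cloned human subtypes. Radioligand 125I-NDP-α-MSH; NSB with 1 μM α-MSH; metallopeptide at chosen concentration; readout % inhibition of specific binding.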

[3] = target: T3, MC4-R (Homo sapiens, UniProt P32245); experiment: Competitive binding assay: inhibition of 125I-NDP-α-MSH binding to HEK-293 membranes with cloned human receptor subtype 4; settings: Table 6; 1 μM; mean of triplicate
T3 construct: expressed in transfected cells; host or cells: HEK-293
Summary of the method: as §3

[4] = target: T4, hMC2-R (Homo sapiens, UniProt P41968); experiment: Competitive binding assay of additional compounds, Table 6 hMC2-R; settings: 1 μM, mean of triplicate
T4 construct: expressed in transfected cells; host or cells: HEK-293
Experimental: [The source words this procedure for another target and reports this target under the same test.] as §1, §2

T1 sequence (P33032 whole entry): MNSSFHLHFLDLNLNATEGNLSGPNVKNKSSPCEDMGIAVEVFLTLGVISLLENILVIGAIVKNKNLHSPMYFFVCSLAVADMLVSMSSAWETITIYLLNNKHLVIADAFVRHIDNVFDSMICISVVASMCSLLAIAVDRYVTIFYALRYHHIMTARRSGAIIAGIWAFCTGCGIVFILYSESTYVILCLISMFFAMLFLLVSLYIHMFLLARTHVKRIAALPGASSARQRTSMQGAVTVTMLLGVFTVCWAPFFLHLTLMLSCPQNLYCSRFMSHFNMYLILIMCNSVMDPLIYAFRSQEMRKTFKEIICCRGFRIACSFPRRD
T2 sequence (Q01727 whole entry): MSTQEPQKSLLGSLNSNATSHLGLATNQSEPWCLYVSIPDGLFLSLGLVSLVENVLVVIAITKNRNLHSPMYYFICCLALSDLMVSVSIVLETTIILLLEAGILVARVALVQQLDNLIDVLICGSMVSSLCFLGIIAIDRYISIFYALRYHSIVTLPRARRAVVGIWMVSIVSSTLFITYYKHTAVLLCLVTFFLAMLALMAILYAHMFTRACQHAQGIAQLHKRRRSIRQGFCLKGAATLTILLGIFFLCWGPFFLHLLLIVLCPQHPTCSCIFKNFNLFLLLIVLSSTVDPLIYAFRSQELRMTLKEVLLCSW
T3 sequence (P32245 whole entry): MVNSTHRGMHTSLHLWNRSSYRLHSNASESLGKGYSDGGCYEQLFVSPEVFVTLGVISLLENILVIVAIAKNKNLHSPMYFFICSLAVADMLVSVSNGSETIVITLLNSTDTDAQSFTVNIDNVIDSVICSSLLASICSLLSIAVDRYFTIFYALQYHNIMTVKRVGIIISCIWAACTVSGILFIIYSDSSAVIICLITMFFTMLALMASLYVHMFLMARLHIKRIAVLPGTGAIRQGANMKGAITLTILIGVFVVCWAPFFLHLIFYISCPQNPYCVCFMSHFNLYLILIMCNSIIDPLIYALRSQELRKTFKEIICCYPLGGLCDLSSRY
T4 sequence (P41968 whole entry): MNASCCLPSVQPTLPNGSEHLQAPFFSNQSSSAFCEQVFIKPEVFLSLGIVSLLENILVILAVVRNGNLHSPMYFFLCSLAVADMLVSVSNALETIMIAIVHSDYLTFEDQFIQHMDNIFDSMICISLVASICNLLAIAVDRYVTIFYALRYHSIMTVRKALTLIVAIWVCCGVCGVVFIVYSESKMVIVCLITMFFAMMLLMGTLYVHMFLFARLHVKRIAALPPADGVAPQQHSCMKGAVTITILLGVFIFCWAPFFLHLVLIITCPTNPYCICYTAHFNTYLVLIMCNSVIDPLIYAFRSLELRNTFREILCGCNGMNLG

Substance | % Inhibition of Binding hMC5-R [1] | % Inhibition of Binding MC1-R [2] | % Inhibition of Binding hMC4-R [3] | % Inhibition of Binding hMC2-R [4]
3′-Bromo phenyl acetyl-Lys-Ala-D-Phe(4′-Me)-Cys-Trp-NH2 | 80% | 0% | 73% | 19%
3′-Phenylpropionyl-D-Phe-Arg-Cys-Trp-NH2 (Hydrocinnamoyl-[dF]RCW-NH2; not fully specified; printed as 3′-Phenylpropionyl-D-Phe-Arg-Cys-Trp-NH2) | 44% | 3% | 0% | 0%
3′-Phenylpropionyl-His-D-Phe-Arg-Cys-Trp-NH2 (Hydrocinnamoyl-H[dF]RCW-NH2; not fully specified; printed as 3′-Phenylpropionyl-His-D-Phe-Arg-Cys-Trp-NH2) | 50% | 75% | 16% | 2%
4-Amc-D-Phe-Arg-Trp-Cys-NH2 ({4‑Amc}-[dF]RWC-NH2; not fully specified; printed as 4-Amc-D-Phe-Arg-Trp-Cys-NH2; reading uncertain) | 6% | 51% | 6% | 0%
4′-Biphenylacetyl-D-Phe-Arg-Cys-Trp-NH2 ({Phenylacetyl(4-Ph)}-[dF]RCW-NH2; not fully specified; printed as 4′-Biphenylacetyl-D-Phe-Arg-Cys-Trp-NH2) | 50% | 1% | 0% | 0%
7-amino-Heptanoyl-D-Igl-D-Phe-Arg-Trp-Cys-NH2 ([Ahp][dIgl][dF]RWC-NH2; not fully specified; printed as 7-amino-Heptanoyl-D-Igl-D-Phe-Arg-Trp-Cys-NH2) | 35% | 47% | 5% | 0%
7-amino-haptanoyl-D-Igl-D-Phe-Arg-Cys-NH2 | 32% | 8% | 10% | 0%
7-amino-haptanoyl-Ser(Bzl)-D-Nal 2′-Arg-Cys-NH2 | 34% | 3% | 6% | 0%
Ac-Ala-Ala-Ala-D-Phe-Arg-Cys-Trp-NH2 (Ac-AAA[dF]RCW-NH2; not fully specified; printed as Ac-Ala-Ala-Ala-D-Phe-Arg-Cys-Trp-NH2) | 0% | 5% | 3% | 0%
Ac-Ala-Ala-His-D-Phe-Arg-Cys-Trp-NH2 ({Ac-Ala-Ala-H2N}-[dF]RCW-NH2; not fully specified; printed as Ac-Ala-Ala-His-D-Phe-Arg-Cys-Trp-NH2) | 17% | 76% | 4% | 0%
Ac-Ala-His-D-Phe-Arg-Cys-Trp-NH2 ({Ac-Ala-H2N}-[dF]RCW-NH2; not fully specified; printed as Ac-Ala-His-D-Phe-Arg-Cys-Trp-NH2) | 9% | 61% | 0% | 0%
Ac-Leu-His-D-Phe-Arg-Cys-Trp-NH2 ({Ac-Leu-H2N}-[dF]RCW-NH2; not fully specified; printed as Ac-Leu-His-D-Phe-Arg-Cys-Trp-NH2) | 31% | 75% | 0% | 0%
Ac-Nle-Ala-Ala-D-Phe-Arg-Cys-Trp-NH2 (Ac-[Nle]AA[dF]RCW-NH2; not fully specified; printed as Ac-Nle-Ala-Ala-D-Phe-Arg-Cys-Trp-NH2) | 20% | 34% | 12% | 9%
Ac-Nle-Ala-Arg-D-Phe-Arg-Cys-Trp-NH2 (Ac-[Nle]AR[dF]RCW-NH2; not fully specified; printed as Ac-Nle-Ala-Arg-D-Phe-Arg-Cys-Trp-NH2) | 59% | 92% | 39% | 26%
Ac-Nle-Ala-D-Tyr-D-Phe-Arg-Cys-Trp-NH2 (Ac-[Nle]A[dY][dF]RCW-NH2; not fully specified; printed as Ac-Nle-Ala-D-Tyr-D-Phe-Arg-Cys-Trp-NH2) | 0% | 15% | 1% | 0%
Ac-Nle-Ala-Glu-D-Phe-Arg-Cys-Trp-NH2 (Ac-[Nle]AE[dF]RCW-NH2; not fully specified; printed as Ac-Nle-Ala-Glu-D-Phe-Arg-Cys-Trp-NH2) | 0% | 0% | 12% | 3%
Ac-Nle-Ala-His-D-Phe-Arg-D-Nal 1′-Cys-NH2 | 5% | 93% | 47% | 3%
Ac-Nle-Ala-His-D-Phe-Arg-D-Nal 2′-Cys-NH2 | 54% | 100% | 90% | 0%
Ac-Nle-Ala-His-D-Phe-Arg-His-Cys-NH2 ({Ac-Nle-Ala-H2N}-[dF]RHC-NH2; not fully specified; printed as Ac-Nle-Ala-His-D-Phe-Arg-His-Cys-NH2) | 0% | 58% | 1% | 0%
Ac-Nle-Ala-His-D-Phe-Arg-Nal 1′-Cys-NH2 | 82% | 95% | 65% | 22%
Ac-Nle-Ala-His-D-Phe-Arg-Nal 2′-Cys-NH2 | 83% | 99% | 89% | 40%
Ac-[Nle]AF[dF]RCW-NH2 | 71% | 58% | 16% | 0%
Ac-[Nle]AH[dF]R[dH]C-NH2 | 0% | 52% | 16% | 0%
Ac-[Nle]AL[dF]RCW-NH2 | 87% | 81% | 18% | 4%
Ac-[Nle]AT[dF]RCW-NH2 | 7% | 30% | 11% | 8%
